Data on one molecule can be found in patent US20040259787A1 (published 2004).

In the test the target is T1, C1q (UniProt P02745 23-245; P02746 28-253; P02747 29-245, radioiodinated (Bolton & Hunter) in the assay of FIG. 2).
T1 construct: mature; Purified native C1q; also called native fluid-phase C1q; radioiodinated C1q
The experiment in a line: solid-phase domain, radioiodinated C1q, low salt.

T1 sequence (P02745 23-245, chain 1 of 3): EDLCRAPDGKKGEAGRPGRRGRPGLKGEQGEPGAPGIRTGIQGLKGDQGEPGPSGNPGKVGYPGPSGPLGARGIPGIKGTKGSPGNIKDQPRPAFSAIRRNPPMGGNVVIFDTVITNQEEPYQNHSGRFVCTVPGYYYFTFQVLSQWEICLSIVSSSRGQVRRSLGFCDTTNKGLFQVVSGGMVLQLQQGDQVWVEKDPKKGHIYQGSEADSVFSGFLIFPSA
T1 sequence (P02746 28-253, chain 2 of 3): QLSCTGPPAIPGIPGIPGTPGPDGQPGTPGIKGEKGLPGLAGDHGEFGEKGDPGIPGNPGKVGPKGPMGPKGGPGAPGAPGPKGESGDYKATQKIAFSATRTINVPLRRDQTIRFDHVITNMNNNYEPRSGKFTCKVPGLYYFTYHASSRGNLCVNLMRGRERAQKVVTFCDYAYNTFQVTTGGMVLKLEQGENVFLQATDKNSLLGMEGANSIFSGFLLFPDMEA
T1 sequence (P02747 29-245, chain 3 of 3): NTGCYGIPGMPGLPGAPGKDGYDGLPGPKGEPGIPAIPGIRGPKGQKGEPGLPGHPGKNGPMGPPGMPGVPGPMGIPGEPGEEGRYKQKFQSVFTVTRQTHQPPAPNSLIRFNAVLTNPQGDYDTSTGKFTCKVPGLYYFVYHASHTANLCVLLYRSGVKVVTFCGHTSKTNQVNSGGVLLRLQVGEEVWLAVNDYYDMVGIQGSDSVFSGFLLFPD
Description: Microtitre plates were coated with the N-, P-, C- and CUB-domains and with three controls, cC1qR, BSA and Thioredoxin, (8 mg/ml in 35 mM NaHCO3, 15 mM Na2CO3 pH 9.6) for 2 hr at 37° C. Non-specific interactions were blocked by incubation with 10 mM potassium phosphate, 0.5 mM EDTA pH 7.4 containing BSA (10 mg/ml). Any free —SH groups in the samples, due to the presence of the thioredoxin fusion protein, were blocked by a brief washing step using the phosphate buffer containing 2 mM iodoacetamide. […] Wells were washed three times with phosphate buffer and bound radioactivity eluted with 100 ml 4M NaOH and measured.

B1: recombinant C-domain of human cC1qR/CRT, thioredoxin fusion protein (other)
chain: DNFGVLGLDLWQVKSGTIFDNFLITNDEAYAEEFGNETWGVTKAAEKQMKDKQDEEQRLKEEEEDKKRKEEEEAEDKEDDEDKDEDEEDEEDKEEDEEEDVPGQAKDEL
notes: not shown: thioredoxin fusion partner from plasmid pTrxfus (Invitrogen), expressed in E. coli
Consider B1, for which the binding result was “no binding”.
